From article PMC8801479
Blank lines part the entries; values can stand above or below the substance they belong to.

How the values were obtained:
[1] = biological target: the GF and c-AMH; experiment: ELISA; c-AMH or GF captured on mAb-C1; various concentrations of AMHR2-Fc/Fc in solution; bound AMHR2-Fc/Fc detected with antihuman-Fc Ab conjugated to HRP; quadratic fit
[2] = biological target: activin A growth factor growth factor domain (Homo sapiens) (UniProt P08476); conditions: cited from earlier work
[3] = biological target: anti-Müllerian hormone growth factor (AMH GF), the mature C-terminal domain (human) (UniProt P03971); experiment: ELISA; c-AMH diluted to 1 ng/ml (8.8 pM) in PBS with 1% BSA and 1% goat serum, 10 days at room temperature; ELISA that detects only intact complex; Kd calculated from the fraction of intact complex
[4] = biological target: anti-Müllerian hormone growth factor (AMH GF), the mature C-terminal domain (human) (UniProt P03971); experiment: ELISA; AMHR2-Fc/Fc captured on goat antihuman Fc Ab on the plate; c-AMH 0.03 to 52.83 nM; bound AMH detected with nonbiotinylated mAb-C1 or mAb-N1 and antimouse-Fc-HRP, added one by one or as a preformed complex; data fit globally to the equations of Perelson and DeLisi for ligand-induced receptor dimerization, with the quadratic equation for K_mono and Kbi; [R0] = 0.1 nM
[5] = biological target: AMHR2-Fc/Fc, heterodimer of one AMHR2-Fc chain (extracellular domain of human AMHR2 fused to human IgG1 Fc) disulfide bonded to one Fc-only chain (human) (UniProt Q16671); experiment: as above
[6] = biological target: AMHR2-Fc/Fc, heterodimer of one AMHR2-Fc chain (extracellular domain of human AMHR2 fused to human IgG1 Fc) disulfide bonded to one Fc-only chain (human) (UniProt Q16671); experiment: ELISA; AMHR2-Fc/Fc (0.75 ug/ml) captured on goat antihuman Fc Ab coated on the plate; c-AMH or GF serially diluted, 2 to 4 h; bound AMH detected with biotinylated mAb-C1 (GF) or mAb-N1 (prodomain) and SA-HRP; data fit to the quadratic equation for a reversible association reaction

Sequence of anti-Müllerian hormone growth factor (AMH GF), the mature C-terminal domain (human) (P03971 452-560): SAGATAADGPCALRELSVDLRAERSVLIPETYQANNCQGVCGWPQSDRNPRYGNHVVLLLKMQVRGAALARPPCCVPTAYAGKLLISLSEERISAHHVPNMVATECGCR
Sequence of cleaved anti-Müllerian hormone (c-AMH), the noncovalent complex of the AMH prodomain with the AMH growth factor (P03971 25-451 limits assumed): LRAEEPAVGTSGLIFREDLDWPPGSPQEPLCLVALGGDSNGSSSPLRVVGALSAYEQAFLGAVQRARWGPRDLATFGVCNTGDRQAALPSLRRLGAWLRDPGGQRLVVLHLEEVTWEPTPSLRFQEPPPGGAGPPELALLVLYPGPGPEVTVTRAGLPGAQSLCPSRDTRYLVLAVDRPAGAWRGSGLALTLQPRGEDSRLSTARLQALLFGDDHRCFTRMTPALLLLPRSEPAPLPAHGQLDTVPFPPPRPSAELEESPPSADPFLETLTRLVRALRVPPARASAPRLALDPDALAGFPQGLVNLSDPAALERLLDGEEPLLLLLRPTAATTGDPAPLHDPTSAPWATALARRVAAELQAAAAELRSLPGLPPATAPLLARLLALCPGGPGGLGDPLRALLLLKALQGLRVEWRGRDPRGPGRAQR
Sequence of cleaved anti-Müllerian hormone (c-AMH), the noncovalent complex of the AMH prodomain with the AMH growth factor (P03971 452-560 limits assumed): as the sequence (P03971 452-560) above
Sequence of activin A prodomain prodomain (P08476 21-310): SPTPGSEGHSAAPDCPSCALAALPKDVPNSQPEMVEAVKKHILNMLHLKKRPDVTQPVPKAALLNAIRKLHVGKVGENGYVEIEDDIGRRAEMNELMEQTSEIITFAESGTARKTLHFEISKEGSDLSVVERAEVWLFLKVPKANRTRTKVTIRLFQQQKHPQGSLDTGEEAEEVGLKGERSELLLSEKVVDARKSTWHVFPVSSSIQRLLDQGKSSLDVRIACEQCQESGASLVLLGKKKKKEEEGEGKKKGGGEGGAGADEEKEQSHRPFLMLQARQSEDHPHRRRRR
Sequence of activin A growth factor growth factor domain (Homo sapiens) (P08476 311-426): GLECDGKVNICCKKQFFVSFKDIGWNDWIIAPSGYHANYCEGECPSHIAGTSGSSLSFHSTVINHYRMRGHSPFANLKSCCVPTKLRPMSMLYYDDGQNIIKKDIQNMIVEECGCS

Kd [1]: 3 to 4 nM
Substance: AMHR2-Fc/Fc, heterodimer of one AMHR2-Fc chain (extracellular domain of human AMHR2 fused to human IgG1 Fc) disulfide bonded to one Fc-only chain (from UniProt Q16671 18-149; P01857 104-330) (Fc fusion)

Substance: activin A prodomain prodomain (from UniProt P08476)
Kd [2]: 5 nM

Kd [3]: 0.0004 nM | intact complex left after 10 days at 8.8 pM, percent of samples diluted immediately before the assay [3]: 80% | KT (apparent dissociation constant of the receptor-bound AMH complex, at [R0] = 100 pM), at 0.03 nM c-AMH [4]: 7.5 pM | KT (apparent dissociation constant of the receptor-bound AMH complex, at [R0] = 100 pM), at 0.05 nM c-AMH [4]: 22.1 pM | KT (apparent dissociation constant of the receptor-bound AMH complex, at [R0] = 100 pM), at 0.10 nM c-AMH [4]: 24.3 pM | KT (apparent dissociation constant of the receptor-bound AMH complex, at [R0] = 100 pM), at 0.21 nM c-AMH [4]: 36.6 pM | KT (apparent dissociation constant of the receptor-bound AMH complex, at [R0] = 100 pM), at 0.41 nM c-AMH [4]: 38.7 pM | KT (apparent dissociation constant of the receptor-bound AMH complex, at [R0] = 100 pM), at 0.83 nM c-AMH [4]: 45.3 pM | KT (apparent dissociation constant of the receptor-bound AMH complex, at [R0] = 100 pM), at 1.65 nM c-AMH [4]: 26.2 pM | KT (apparent dissociation constant of the receptor-bound AMH complex, at [R0] = 100 pM), at 3.30 nM c-AMH [4]: 10 pM | KT (apparent dissociation constant of the receptor-bound AMH complex, at [R0] = 100 pM), at 6.60 nM c-AMH [4]: 6.1 pM | KT (apparent dissociation constant of the receptor-bound AMH complex, at [R0] = 100 pM), at 13.21 nM c-AMH [4]: 2.7 pM | KT (apparent dissociation constant of the receptor-bound AMH complex, at [R0] = 100 pM), at 26.41 nM c-AMH; taken as a measure of K mono [4]: 1 pM | KT (apparent dissociation constant of the receptor-bound AMH complex, at [R0] = 100 pM), at 52.83 nM c-AMH; taken as a measure of K mono [4]: 0.8 pM | [NCT]/[RL + RLR], fraction-intact AMH complex, at 0.03 nM c-AMH [4]: 0.29 | [NCT]/[RL + RLR], fraction-intact AMH complex, at 0.05 nM c-AMH [4]: 0.234 | [NCT]/[RL + RLR], fraction-intact AMH complex, at 0.10 nM c-AMH [4]: 0.271 | [NCT]/[RL + RLR], fraction-intact AMH complex, at 0.21 nM c-AMH [4]: 0.276 | [NCT]/[RL + RLR], fraction-intact AMH complex, at 0.41 nM c-AMH [4]: 0.347 | [NCT]/[RL + RLR], fraction-intact AMH complex, at 0.83 nM c-AMH [4]: 0.386 | [NCT]/[RL + RLR], fraction-intact AMH complex, at 1.65 nM c-AMH [4]: 0.521 | [NCT]/[RL + RLR], fraction-intact AMH complex, at 3.30 nM c-AMH [4]: 0.688 | [NCT]/[RL + RLR], fraction-intact AMH complex, at 6.60 nM c-AMH [4]: 0.767 | [NCT]/[RL + RLR], fraction-intact AMH complex, at 13.21 nM c-AMH [4]: 0.845 | [NCT]/[RL + RLR], fraction-intact AMH complex, at 26.41 nM c-AMH [4]: 0.903 | [NCT]/[RL + RLR], fraction-intact AMH complex, at 52.83 nM c-AMH [4]: 0.917
Substance: anti-Müllerian hormone prodomain (N-terminal prodomain of c-AMH) (domain or fragment)

K1 (dissociation constant of the initial monovalent binding step; fit of Figure 5C) [5]: 1.1 nM | K1 (dissociation constant of the initial monovalent binding step; fit of Figure 5D) [5]: 1.1 nM | [CT]/[R0], bound AMH without prodomain, estimate of [RLR]/[R0], at 0.03 nM c-AMH [5]: 0.031 | [CT]/[R0], bound AMH without prodomain, estimate of [RLR]/[R0], at 0.05 nM c-AMH [5]: 0.067 | [CT]/[R0], bound AMH without prodomain, estimate of [RLR]/[R0], at 0.10 nM c-AMH [5]: 0.091 | [CT]/[R0], bound AMH without prodomain, estimate of [RLR]/[R0], at 0.21 nM c-AMH [5]: 0.147 | [CT]/[R0], bound AMH without prodomain, estimate of [RLR]/[R0], at 0.41 nM c-AMH [5]: 0.206 | [CT]/[R0], bound AMH without prodomain, estimate of [RLR]/[R0], at 0.83 nM c-AMH [5]: 0.284 | [CT]/[R0], bound AMH without prodomain, estimate of [RLR]/[R0], at 1.65 nM c-AMH [5]: 0.285 | [CT]/[R0], bound AMH without prodomain, estimate of [RLR]/[R0], at 3.30 nM c-AMH [5]: 0.22 | [CT]/[R0], bound AMH without prodomain, estimate of [RLR]/[R0], at 6.60 nM c-AMH [5]: 0.199 | [CT]/[R0], bound AMH without prodomain, estimate of [RLR]/[R0], at 13.21 nM c-AMH [5]: 0.145 | [CT]/[R0], bound AMH without prodomain, estimate of [RLR]/[R0], at 26.41 nM c-AMH [5]: 0.094 | [CT]/[R0], bound AMH without prodomain, estimate of [RLR]/[R0], at 52.83 nM c-AMH [5]: 0.086 | [NCT]/[R0], intact AMH complex bound (mAb-N1), estimate of [RL]/[R0], at 0.03 nM c-AMH [5]: 0.013 | [NCT]/[R0], intact AMH complex bound (mAb-N1), estimate of [RL]/[R0], at 0.05 nM c-AMH [5]: 0.021 | [NCT]/[R0], intact AMH complex bound (mAb-N1), estimate of [RL]/[R0], at 0.10 nM c-AMH [5]: 0.034 | [NCT]/[R0], intact AMH complex bound (mAb-N1), estimate of [RL]/[R0], at 0.21 nM c-AMH [5]: 0.056 | [NCT]/[R0], intact AMH complex bound (mAb-N1), estimate of [RL]/[R0], at 0.41 nM c-AMH [5]: 0.109 | [NCT]/[R0], intact AMH complex bound (mAb-N1), estimate of [RL]/[R0], at 0.83 nM c-AMH [5]: 0.178 | [NCT]/[R0], intact AMH complex bound (mAb-N1), estimate of [RL]/[R0], at 1.65 nM c-AMH [5]: 0.311 | [NCT]/[R0], intact AMH complex bound (mAb-N1), estimate of [RL]/[R0], at 3.30 nM c-AMH [5]: 0.487 | [NCT]/[R0], intact AMH complex bound (mAb-N1), estimate of [RL]/[R0], at 6.60 nM c-AMH [5]: 0.654 | [NCT]/[R0], intact AMH complex bound (mAb-N1), estimate of [RL]/[R0], at 13.21 nM c-AMH [5]: 0.794 | [NCT]/[R0], intact AMH complex bound (mAb-N1), estimate of [RL]/[R0], at 26.41 nM c-AMH [5]: 0.871 | [NCT]/[R0], intact AMH complex bound (mAb-N1), estimate of [RL]/[R0], at 52.83 nM c-AMH [5]: 0.941 | [R0]/K2 (second, bivalent binding step; dimensionless) [5]: 6 | [R0]/K2 (second, bivalent binding step; dimensionless; fit of Figure 5C) [5]: 3.7 | [R0]/K2 (second, bivalent binding step; dimensionless; fit of Figure 5D) [5]: 4.9 | [RL+2RLR]/[R0], fraction-receptor occupancy, at 0.03 nM c-AMH [5]: 0.103 | [RL+2RLR]/[R0], fraction-receptor occupancy, at 0.05 nM c-AMH [5]: 0.163 | [RL+2RLR]/[R0], fraction-receptor occupancy, at 0.10 nM c-AMH [5]: 0.254 | [RL+2RLR]/[R0], fraction-receptor occupancy, at 0.21 nM c-AMH [5]: 0.386 | [RL+2RLR]/[R0], fraction-receptor occupancy, at 0.41 nM c-AMH [5]: 0.538 | [RL+2RLR]/[R0], fraction-receptor occupancy, at 0.83 nM c-AMH [5]: 0.654 | [RL+2RLR]/[R0], fraction-receptor occupancy, at 1.65 nM c-AMH [5]: 0.789 | [RL+2RLR]/[R0], fraction-receptor occupancy, at 3.30 nM c-AMH [5]: 0.834 | [RL+2RLR]/[R0], fraction-receptor occupancy, at 6.60 nM c-AMH [5]: 0.917 | [RL+2RLR]/[R0], fraction-receptor occupancy, at 13.21 nM c-AMH [5]: 0.951 | [RL+2RLR]/[R0], fraction-receptor occupancy, at 26.41 nM c-AMH [5]: 0.989 | [RL+2RLR]/[R0], fraction-receptor occupancy, at 52.83 nM c-AMH [5]: 1 | [RL+RLR]/[R0], fraction-maximal AMH binding, at 0.03 nM c-AMH [5]: 0.043 | [RL+RLR]/[R0], fraction-maximal AMH binding, at 0.05 nM c-AMH [5]: 0.088 | [RL+RLR]/[R0], fraction-maximal AMH binding, at 0.10 nM c-AMH [5]: 0.125 | [RL+RLR]/[R0], fraction-maximal AMH binding, at 0.21 nM c-AMH [5]: 0.203 | [RL+RLR]/[R0], fraction-maximal AMH binding, at 0.41 nM c-AMH [5]: 0.315 | [RL+RLR]/[R0], fraction-maximal AMH binding, at 0.83 nM c-AMH [5]: 0.463 | [RL+RLR]/[R0], fraction-maximal AMH binding, at 1.65 nM c-AMH [5]: 0.596 | [RL+RLR]/[R0], fraction-maximal AMH binding, at 3.30 nM c-AMH [5]: 0.707 | [RL+RLR]/[R0], fraction-maximal AMH binding, at 6.60 nM c-AMH [5]: 0.854 | [RL+RLR]/[R0], fraction-maximal AMH binding, at 13.21 nM c-AMH [5]: 0.94 | [RL+RLR]/[R0], fraction-maximal AMH binding, at 26.41 nM c-AMH [5]: 0.965 | [RL+RLR]/[R0], fraction-maximal AMH binding, at 52.83 nM c-AMH [5]: 1.03 | Kd [6]: 0.3 nM
Substance: cleaved anti-Müllerian hormone (c-AMH), the noncovalent complex of the AMH prodomain with the AMH growth factor (from UniProt P03971 452-560)
